Data from US20150010538A1 (AbbVie / Abbott, published 2015).
Like-named read-outs stand apart in the source and are kept apart here.

T1: recombinant human CD25 (IL2-Rα) (human, UniProt P01589 22-213, limits assumed)
T1 construct: Bought recombinant soluble protein; also called IL2 receptor α chain; recombinant soluble human CD25
T1 sequence (looked up): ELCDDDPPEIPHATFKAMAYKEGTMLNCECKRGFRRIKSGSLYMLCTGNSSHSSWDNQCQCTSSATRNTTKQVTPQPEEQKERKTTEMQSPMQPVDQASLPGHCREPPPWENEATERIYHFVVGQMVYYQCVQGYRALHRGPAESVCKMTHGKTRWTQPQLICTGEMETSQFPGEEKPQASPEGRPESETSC


What was measured:
[1] = target: T1, recombinant human CD25 (IL2-Rα); test: competition ELISA: binding of biotinylated wild type daclizumab IgG to CD25 in the presence of titrated competitor Fab, O.D. 415
Experimental: Wells of 96-well ELISA plates (Nunc-Immuno MaxiSorp plates, Nalge Nunc, Rochester, N.Y.) were coated with 100 μL of 0.2 μg/mL CD25 (Pepro Tech Inc., Rocky Hill, N.J.) in 0.2 M sodium carbonate-bicarbonate buffer (pH 9.4, Pierce, Rockford, Ill.) overnight at 4° C. After washing with Wash Buffer, wells were blocked with 200 μL of Superblock Blocking Buffer (Pierce, Rockford, Ill.) for 30 min and then washed. […] The plate was then washed with washing buffer three times. After washing, 100 μL of 1 μg/mL HRP-conjugated Streptavidin (Pierce) diluted in ELISA buffer was added to each well. After 30 minutes of incubation at room temperature, plates were washed and bound antibodies were detected by addition of ABTS substrate (Kirkegaard & Perry Laboratories, Gaithersburg, Md.). […] Binding inhibition curves were fitted using nonlinear regression with the software [sequence]

[2] = target: T1, recombinant human CD25 (IL2-Rα); test: ELISA competition assay on CD25 (format of Section 6.3.1.1: competitor antibody titrated against biotinylated daclizumab on plate-coated CD25), OD415
Experimental: (§1) Wells of 96-well ELISA plates (Nunc-Immuno MaxiSorp plates, Nalge Nunc, Rochester, N.Y.) were coated with 100 μL of 0.2 μg/mL CD25 (Pepro Tech Inc., Rocky Hill, N.J.) in 0.2 M sodium carbonate-bicarbonate buffer (pH 9.4, Pierce, Rockford, Ill.) overnight at 4° C. After washing with Wash Buffer, wells were blocked with 200 μL of Superblock Blocking Buffer (Pierce, Rockford, Ill.) for 30 min and then washed. […] The plate was then washed with washing buffer three times. After washing, 100 μL of 1 μg/mL HRP-conjugated Streptavidin (Pierce) diluted in ELISA buffer was added to each well. After 30 minutes of incubation at room temperature, plates were washed and bound antibodies were detected by addition of ABTS substrate (Kirkegaard & Perry Laboratories, Gaithersburg, Md.). […] PRISM (GraphPad, San Diego) and reported as IC₅₀ wild type/IC₅₀ mutant (fold improvement over wild type control).

[3] = target: T1, recombinant human CD25 (IL2-Rα); test: as above; remark: listed apart in the source
Experimental: as §1

[4] = target: T1, recombinant human CD25 (IL2-Rα); test: competition ELISA on plate-coated CD25; competitor biotinylated daclizumab
Experimental: as §1

[5] = target: T1, recombinant human CD25 (IL2-Rα); test: competitive ELISA on plate-coated CD25; competitor biotinylated daclizumab
Experimental: as §1

Binder | fold affinity over the parental antibody [5] | also measured
VSR-SN Fab (Fab, V domains shown, also called VSR-SN in Fab; copies: 1 + 1) VH: QVQLVQSGAEVKKPGSSVKVSCKASGYTFTSYRMHWVRQAPGQGLEWIGYIVPSRGYTEYNQKFKDKATITADESTNTAYMELSSLRSEDTAVYYCARGGGVFDYWGQGTLVTVSS VL: DIQMTQSPSTLSASVGDRVTITCSASSSISYMHWYQQKPGKAPKLLIYTTSNLASGVPARFSGSGSGTEFTLTISSLQPDDFATYYCHQRSTYPLTFGQGTKVEVK | – | IC50 (read off the curve) [1]: ~30 nM
NuhuTac (rehumanized anti-Tac) (antibody, V domains shown, VH on human framework R3.5H5G, VL on ka3d1; N-terminal Glu in VH; also called rehumanized antibody) VH: EVQLVQSGAEVKKPGASVKVSCKASGYTFTSYRMHWVRQAPGQGLEWIGYINPSTGYTEYNQKFKDKATMTADKSISTAYMELSSLRSEDTAVYYCARGGGVFDYWGQGTLVTVSS VL: EIVLTQSPATLSLSPGERATLTCSASSSISYMHWFQQKPGQAPRLLIYTTSNLASGIPARFSGSGSGTDYTLTISSLEPEDFAVYYCHQRSTYPLTFGQGTKVEIK | – | EC50 [2]: 0.49 µg/mL; EC50 [3]: 0.71 µg/mL
daclizumab VL S29R-S31T (antibody, IgG1, V domains shown, Soluble IgG1/kappa; also called R29T31) VH: QVQLVQSGAEVKKPGSSVKVSCKASGYTFTSYRMHWVRQAPGQGLEWIGYINPSTGYTEYNQKFKDKATITADESTNTAYMELSSLRSEDTAVYYCARGGGVFDYWGQGTLVTVSS VL: DIQMTQSPSTLSASVGDRVTITCSASSRITYMHWYQQKPGKAPKLLIYTTSNLASGVPARFSGSGSGTEFTLTISSLQPDDFATYYCHQRSTYPLTFGQGTKVEVK | – | fold improvement in binding over daclizumab [4]: ~2 fold
NuhuTacVH with daclizumabVL (antibody, V domains shown) VH: EVQLVQSGAEVKKPGASVKVSCKASGYTFTSYRMHWVRQAPGQGLEWIGYINPSTGYTEYNQKFKDKATMTADKSISTAYMELSSLRSEDTAVYYCARGGGVFDYWGQGTLVTVSS VL: DIQMTQSPSTLSASVGDRVTITCSASSSISYMHWYQQKPGKAPKLLIYTTSNLASGVPARFSGSGSGTEFTLTISSLQPDDFATYYCHQRSTYPLTFGQGTKVEVK | – | EC50 [2]: 0.47 µg/mL
daclizumab VH and NuhuTacVL (antibody, V domains shown) VH: QVQLVQSGAEVKKPGSSVKVSCKASGYTFTSYRMHWVRQAPGQGLEWIGYINPSTGYTEYNQKFKDKATITADESTNTAYMELSSLRSEDTAVYYCARGGGVFDYWGQGTLVTVSS VL: EIVLTQSPATLSLSPGERATLTCSASSSISYMHWFQQKPGQAPRLLIYTTSNLASGIPARFSGSGSGTDYTLTISSLEPEDFAVYYCHQRSTYPLTFGQGTKVEIK | – | EC50 [2]: 1.18 µg/mL
daclizumab VH variant QRKFH (antibody, IgG1, name in Kabat numbering, V domains shown, VH library clone, soluble IgG1) VH: QVQLVQSGAEVKKPGSSVKVSCKASGYTFTSYRMHWVRQAPGQGLEWIGYIQPRKGFTHYNQKFKDKATITADESTNTAYMELSSLRSEDTAVYYCARGGGVFDYWGQGTLVTVSS VL: DIQMTQSPSTLSASVGDRVTITCSASSSISYMHWYQQKPGKAPKLLIYTTSNLASGVPARFSGSGSGTEFTLTISSLQPDDFATYYCHQRSTYPLTFGQGTKVEVK | ~10 fold | –

Further lines, with some results ahead:

fold affinity over the parental antibody [5] | Binder | also measured
~10 fold | daclizumab VH variant SNKYL (antibody, IgG1, name in Kabat numbering, V domains shown, VH library clone, soluble IgG1) VH: QVQLVQSGAEVKKPGSSVKVSCKASGYTFTSYRMHWVRQAPGQGLEWIGYISPNKGYTLYNQKFKDKATITADESTNTAYMELSSLRSEDTAVYYCARGGGVFDYWGQGTLVTVSS VL: DIQMTQSPSTLSASVGDRVTITCSASSSISYMHWYQQKPGKAPKLLIYTTSNLASGVPARFSGSGSGTEFTLTISSLQPDDFATYYCHQRSTYPLTFGQGTKVEVK | –
~10 fold | daclizumab VH variant RRKFE (antibody, IgG1, name in Kabat numbering, V domains shown, VH library clone, soluble IgG1) VH: QVQLVQSGAEVKKPGSSVKVSCKASGYTFTSYRMHWVRQAPGQGLEWIGYIRPRKGFTEYNQKFKDKATITADESTNTAYMELSSLRSEDTAVYYCARGGGVFDYWGQGTLVTVSS VL: DIQMTQSPSTLSASVGDRVTITCSASSSISYMHWYQQKPGKAPKLLIYTTSNLASGVPARFSGSGSGTEFTLTISSLQPDDFATYYCHQRSTYPLTFGQGTKVEVK | –
~10 fold | daclizumab VH variant RRGFE (antibody, IgG1, name in Kabat numbering, V domains shown, VH library clone, soluble IgG1) VH: QVQLVQSGAEVKKPGSSVKVSCKASGYTFTSYRMHWVRQAPGQGLEWIGYIRPRGGFTEYNQKFKDKATITADESTNTAYMELSSLRSEDTAVYYCARGGGVFDYWGQGTLVTVSS VL: DIQMTQSPSTLSASVGDRVTITCSASSSISYMHWYQQKPGKAPKLLIYTTSNLASGVPARFSGSGSGTEFTLTISSLQPDDFATYYCHQRSTYPLTFGQGTKVEVK | –
~10 fold | daclizumab VH variant RKGFE (antibody, IgG1, name in Kabat numbering, V domains shown, VH library clone, soluble IgG1) VH: QVQLVQSGAEVKKPGSSVKVSCKASGYTFTSYRMHWVRQAPGQGLEWIGYIRPKGGFTEYNQKFKDKATITADESTNTAYMELSSLRSEDTAVYYCARGGGVFDYWGQGTLVTVSS VL: DIQMTQSPSTLSASVGDRVTITCSASSSISYMHWYQQKPGKAPKLLIYTTSNLASGVPARFSGSGSGTEFTLTISSLQPDDFATYYCHQRSTYPLTFGQGTKVEVK | –
~10 fold | daclizumab VH variant RKGFN (antibody, IgG1, name in Kabat numbering, V domains shown, VH library clone, soluble IgG1) VH: QVQLVQSGAEVKKPGSSVKVSCKASGYTFTSYRMHWVRQAPGQGLEWIGYIRPKGGFTNYNQKFKDKATITADESTNTAYMELSSLRSEDTAVYYCARGGGVFDYWGQGTLVTVSS VL: DIQMTQSPSTLSASVGDRVTITCSASSSISYMHWYQQKPGKAPKLLIYTTSNLASGVPARFSGSGSGTEFTLTISSLQPDDFATYYCHQRSTYPLTFGQGTKVEVK | –
